We go through five molecules from article PMC5645412, “AUNIP/C1orf135 directs DNA double-strand breaks towards the homologous recombination repair pathway” (Nature Communications, 2017).

The target of one data set is T1, MBP-tagged CtIP (UniProt Q99708 1-897).
T1 construct: CtIP; also called MBP-CtIP; source: E. coli BL21, purified (Amylose resin, eluted with maltose)
As to the kind of experiment: pull-down; GST or GST-AUNIP (wild type or mutant) on glutathione-Sepharose incubated with MBP-CtIP in NETN buffer, 2 h at 4 °C; five washes; CtIP detected by monoclonal anti-CtIP antibody. Conditions: both partners purified.

The target of another data set is T2, MBP-AUNIP (UniProt Q9H7T9 1-357).
T2 sequence: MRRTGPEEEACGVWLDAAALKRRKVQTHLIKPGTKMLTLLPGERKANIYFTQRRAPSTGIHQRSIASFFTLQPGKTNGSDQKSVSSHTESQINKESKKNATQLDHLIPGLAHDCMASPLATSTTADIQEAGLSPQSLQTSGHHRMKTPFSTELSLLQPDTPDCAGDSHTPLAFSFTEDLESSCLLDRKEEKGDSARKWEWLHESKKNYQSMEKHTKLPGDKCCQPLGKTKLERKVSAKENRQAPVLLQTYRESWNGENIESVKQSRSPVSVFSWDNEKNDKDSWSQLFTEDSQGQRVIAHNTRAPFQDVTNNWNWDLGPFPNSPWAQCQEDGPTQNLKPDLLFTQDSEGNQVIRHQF
The experiment in a line: EMSA; 10 mM MgCl2; 20 nM biotin-DNA, 0-200 nM protein, 1x LightShift binding buffer with 10 mM MgCl2, 2.5% glycerol, 0.05% NP-40, 20 min, room temperature; 10% native PAGE; pH and salt not given. Conditions: protein: recombinant, label: 5'-biotin on oligo 1. Background: In EMSA bound probe runs differently from free probe, usually more slowly.

The next data set addresses T3, MBP-AUNIP Δ25-70 (UniProt Q9H7T9 1-357, del25-70).
T3 sequence: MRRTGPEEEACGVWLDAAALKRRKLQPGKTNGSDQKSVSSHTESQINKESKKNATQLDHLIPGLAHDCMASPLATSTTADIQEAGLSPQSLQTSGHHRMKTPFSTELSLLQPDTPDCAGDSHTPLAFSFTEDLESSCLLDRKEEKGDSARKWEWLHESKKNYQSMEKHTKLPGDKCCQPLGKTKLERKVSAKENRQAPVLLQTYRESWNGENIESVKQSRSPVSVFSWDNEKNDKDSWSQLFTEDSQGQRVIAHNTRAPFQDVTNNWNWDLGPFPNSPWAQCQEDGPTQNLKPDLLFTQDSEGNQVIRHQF
As to the kind of experiment: EMSA; 10 mM MgCl2; up to 200 nM protein; 20 nM biotin-DNA, 0-200 nM protein, 1x LightShift binding buffer with 10 mM MgCl2, 2.5% glycerol, 0.05% NP-40, 20 min, room temperature; 10% native PAGE; pH and salt not given. The following applies: protein: recombinant; label: 5'-biotin on oligo 1; fork; 31 bp duplex, two 28 nt arms (3' arm of oligo 1, 5' arm of oligo 2).

T1 sequence (Q99708 whole entry): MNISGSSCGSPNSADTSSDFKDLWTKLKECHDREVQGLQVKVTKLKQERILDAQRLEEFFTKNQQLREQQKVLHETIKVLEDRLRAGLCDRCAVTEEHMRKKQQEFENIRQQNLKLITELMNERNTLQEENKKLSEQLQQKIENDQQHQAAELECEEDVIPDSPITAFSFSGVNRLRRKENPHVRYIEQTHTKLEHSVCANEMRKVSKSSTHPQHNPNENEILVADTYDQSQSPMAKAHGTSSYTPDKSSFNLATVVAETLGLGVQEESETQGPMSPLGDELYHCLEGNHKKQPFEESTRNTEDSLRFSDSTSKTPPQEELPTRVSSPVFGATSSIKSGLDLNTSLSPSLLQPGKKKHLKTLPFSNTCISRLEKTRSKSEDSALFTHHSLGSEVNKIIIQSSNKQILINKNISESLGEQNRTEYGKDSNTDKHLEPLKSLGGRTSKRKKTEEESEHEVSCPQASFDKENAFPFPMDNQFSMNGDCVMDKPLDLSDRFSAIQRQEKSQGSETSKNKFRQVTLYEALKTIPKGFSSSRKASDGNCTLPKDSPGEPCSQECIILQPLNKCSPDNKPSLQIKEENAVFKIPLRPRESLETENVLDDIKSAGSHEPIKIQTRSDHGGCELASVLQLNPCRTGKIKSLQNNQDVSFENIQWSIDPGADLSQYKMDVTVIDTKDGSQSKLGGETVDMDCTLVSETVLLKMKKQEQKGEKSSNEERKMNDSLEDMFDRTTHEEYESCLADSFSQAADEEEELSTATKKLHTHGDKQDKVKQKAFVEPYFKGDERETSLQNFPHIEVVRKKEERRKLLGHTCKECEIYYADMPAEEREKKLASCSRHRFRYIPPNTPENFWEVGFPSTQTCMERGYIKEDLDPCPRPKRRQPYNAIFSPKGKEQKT

B1: GST-tagged AUNIP C-terminal region (281-357) (domain or fragment, human, UniProt Q9H7T9 281-357, looked up)
chain: KDSWSQLFTEDSQGQRVIAHNTRAPFQDVTNNWNWDLGPFPNSPWAQCQEDGPTQNLKPDLLFTQDSEGNQVIRHQF
notes: source: E. coli BL21, purified on glutathione-Sepharose resin (kept on the beads)
Turning to B1, the binding result with MBP-tagged CtIP was “binds”.

B2: splayed arm (dsDNA)
DNA 1: GACGCTGCCGAATTCTACCAGTGCCTTGCTAGGACATCTTTGCCCACCTGCAGGTTCAC
DNA 2: ATAGTCGGATCCTCTAGACAGCTCCATGTAGCAAGGCACTGGTAGAATTCGGCAGCGTC
With B2, the binding result in the data set with MBP-AUNIP (fork, 31 bp duplex, two 28 nt arms (3' arm of oligo 1, 5' arm of oligo 2)) is “binds”; with MBP-AUNIP Δ25-70, “no binding”.

B3: 5'-flap (dsDNA)
DNA 1: B2 DNA 1
DNA 2: B2 DNA 2
DNA 3: GTGAACCTGCAGGTGGGCAAAGATGTCC
In the case of B3, the binding result with MBP-AUNIP (1:2 31 bp, 1:3 28 bp, 28 nt 5' flap of strand 2) is on record as “binds”.

B4: 3'-flap (dsDNA)
DNA 1: B2 DNA 1
DNA 2: B2 DNA 2
DNA 3: CATGGAGCTGTCTAGAGGATCCGACTAT
As for B4, the binding result in the data set with MBP-AUNIP (1:2 31 bp, 2:3 28 bp, 28 nt 3' flap of strand 1) is “binds”.

B5: GST-tagged AUNIP (wild-type) (natural protein, human, UniProt Q9H7T9 1-357, looked up)
chain: T2 sequence
notes: AUNIP/C1orf135, human; pCold vectors may add further N-terminal vector residues; also called GST-AUNIP; recombinant GST-AUNIP; source: E. coli BL21, purified on glutathione-Sepharose resin (kept on the beads)
For B5, the binding result with MBP-tagged CtIP is on record as “binds”.
